According to article PMC5702532 (2016):

Target: Bradykinin (Homo sapiens, UniProt P01042)
Assay: SPR

Bradykinin, sequence (P01042 whole entry, looked up): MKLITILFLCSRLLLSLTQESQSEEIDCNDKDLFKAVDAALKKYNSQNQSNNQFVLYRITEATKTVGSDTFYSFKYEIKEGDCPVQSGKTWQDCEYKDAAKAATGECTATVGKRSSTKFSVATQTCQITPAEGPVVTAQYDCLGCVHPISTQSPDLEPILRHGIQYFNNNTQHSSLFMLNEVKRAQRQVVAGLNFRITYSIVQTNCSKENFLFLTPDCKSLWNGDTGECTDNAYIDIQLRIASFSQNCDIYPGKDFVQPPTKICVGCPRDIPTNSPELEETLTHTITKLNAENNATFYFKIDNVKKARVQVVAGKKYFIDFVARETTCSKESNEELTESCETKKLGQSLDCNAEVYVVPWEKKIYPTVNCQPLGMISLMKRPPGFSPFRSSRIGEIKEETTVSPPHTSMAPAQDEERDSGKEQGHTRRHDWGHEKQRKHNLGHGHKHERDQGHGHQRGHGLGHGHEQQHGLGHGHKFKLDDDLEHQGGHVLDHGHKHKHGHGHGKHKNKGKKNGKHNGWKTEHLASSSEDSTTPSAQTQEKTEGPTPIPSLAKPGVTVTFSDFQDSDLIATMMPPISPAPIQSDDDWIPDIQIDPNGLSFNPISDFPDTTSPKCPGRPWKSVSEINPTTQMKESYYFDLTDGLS

- Kd: 15.3 µM
B1: Aminopeptidase P (APaseP) (protein)
chain: PPKVTSELLRQLRQAMRNSEYVTEPIQAYIIPSGDAHQSEYIAPCDCRRAFVSGFDGSAGTAIITEEHAAMWTDGRYFLQAAKQMDSNWTLMKMGLKDTPTQEDWLVSVLPEGSRVGVDPLIIPTDYWKKMAKVLRSAGHHLIPVKENLVDKIWTDRPERPCKPLLTLGLDYTGISWKDKVADLRLKMAERNVMWFVVTALDEIAWLFNLRGSDVEHNPVFFSYAIIGLETIMLFIDGDRIDAPSVKEHLLLDLGLEAEYRIQVHPYKSILSELKALCADLSPREKVWVSDKASYAVSETIPKDHRCCMPYTPICIAKAVKNSAESEGMRRAHIKDAVALCELFNWLEKEVPKGGVTEISAADKAEEFRRQQADFVDLSFPTISSTGPNGAIIHYAPVPETNRTLSLDEVYLIDSGAQYKDGTTDVTRTMHFGTPTAYEKECFTYVLKGHIAVSAAVFPTGTKGHLLDSFARSALWDSGLDYLHGTGHGVGSFLNVHEGPCGISYKTFSDEPLEAGMIVTDEPGYYEDGAFGIRIENVVLVVPVKTKYNFNNRGSLTFEPLTLVPIQTKMIDVDSLTDKECDWLNNYHLTCRDVIGKELQKQGRQEALEWLIRETQPISKQH
